# Measured values taken from article doi:10.1101/580076.
# Target: HAdV-D26 fiber-knob protein (human adenovirus D serotype 26 (HAdV-D26))
# Experiment: crystal structure
substance,measurement,value
HAdV-D26 fiber-knob protein (domain or fragment),stoichiometry N,3
